Measurements as given in paper PMC8891067.

Tests used:
[1] = substrate: CCCCCCCCCCCCCCCC(=O)SCCNC(=O)CCNC(=O)[C@H](O)C(C)(C)COP(=O)(O)OP(=O)(O)OC[C@H]1O[C@@H](n2cnc3c(N)ncnc32)[C@H](O)[C@@H]1OP(=O)(O)O; experiment: purified protein; type: biochemical, Caulobacter vibrioides; details: 100 mM HEPES
[2] = substrate: N[C@@H](CO)C(=O)O; experiment: purified protein; type: biochemical, Caulobacter vibrioides; details: 250 μM C16:0-CoA, 100 mM HEPES, 250 mM NaCl, pH 7.0, 30 °C

B1: Spt (CCNA_01220) (Caulobacter vibrioides NA1000) (protein)
chain: MGLFDKHLAYRDAYKAIQDVGANPFKVRFDAVHSPTEGVVDGRPTILLGTNNYLGLTFDEQAIAASVKAVQERGTGTTGSRIANGSFESHVELEQELAKFYGRKHAMVFTTGYQANLGVLSTLVGRGDHLILDADSHASIYDGSRLGHAEVIRFRHNDPEDLAKRLRRLGDAPGERLIVVEGIYSMIGDVAPLKEIAAVKREMGGYLLVDEAHSMGVLGATGRGLAEAAGVEEDVDFIVGTFSKSLGAIGGFCVSDHDDFDVMRVICRPYMFTASLPPAVAASTVTALRRMIEQPELRDRLNRNAKRLYDGLTAMGFLTGPSASPIVAATMPDQERAIAMWNGLLQAGVYLNLALPPATPDSRPLLRASVSAAHTDEQIDAVLKTYGEIGAALGVIEPLKRARA
- Km ([1]; 20 mM L-serine, 250 mM NaCl, pH 7.0, 30 °C): 110.40 ± 13.37 µM
- Km [2]: 2980 ± 250 µM

B2: bCerS (CCNA_01212) (Caulobacter vibrioides NA1000) (protein)
chain: MPFDSTNADLSVIPVKTPAELKRFIALPARLNAKDPNWITPLFMERTDALTPKTNPFFDHAEVQLFLATRGGRDVGRISAQIDQLTPQPTEGRLDGHFGMIAAEDDPAVFNVLFRAAEDWLRARGRTHAVGPFNLSINEEVGLLVWGFDTPPMVLMGHDPVYAGPRVEEQGYAKAQDLFAYKADETGDIPEIAQRRVKRGLPSGVVLRQLDMSRYDQEVQTLTEILNDAWSDNWGFTPTTEAETRQLAKSLKQVIDQRLVWFSEIDGEAAGVVVFLPNVNEAIADLKGKLLPFGWAKLLWRLKVKGVKSARIPLMGVKKKFQTSQRGRMLPFWMMKASRDMAMSLGYNRYEISWVLEANKAMTHIAENVGGTHYKTYRVYEKAL
- Km ([1]; with 3-KDS (40 μM), 150 mM NaCl, pH 7.5, 30 °C): 21.3 ± 4.1 µM
